Residue numbers refer to the chain shown, from its start.
B1: SRP1848-F08 (antibody, V domains shown)
VH: EVQLVESGGGLVQPGGSLRLSCAAGGFNISNHSIHWVRQAPGKGVEWVGEIYPVDGITDYADSVKGRFTISADTSKNTAYLRMNSLRAEDTAVYYCARGSWYWQSGYSYYLDYWGQGTLVTVSS
VL: not shown
B2: SRP1848-A02 (antibody, V domains shown)
VH: EVQLVESGGGLVQPGGSLRLSCAASGFNISGFRIHWVRQAPGKGLEWVAGIYPESGATYYADSVKGRFTISADTSKNTAYLQMNSLRAEDTAVYYCARHLYVWDWVLDHVLDYWGQGTLVTVSS
VL: not shown
B3: SRP1848-D03 (antibody, V domains shown)
VH: EVQLVESGGGVVQPGGSLRLSCAASGFNIRYFSIHWVRQAPGKGLEWVGDIFPNDGSTDYADSVKGRFTISADTSKNTAYLQMNSLRAEETAVYYCARGHWSWPSGYWYYLDYWGQGTLVTVSS
VL: not shown
B4: SRP1848-E06 (antibody, V domains shown)
VH: EVQLVESGGGLVQPSGSLRLSCAASGFNINRYYIHWVRQAPGKGLEWVGGITPNDGYTDYADSVEGRFTTSADTSKNTAYLQMNSLRAEDTAVYYCARGTWSWPSGHSYYLDYWGQGTLVTVSS
VL: not shown
B5: SRP2060-E10 (antibody, V domains shown)
VH: EVQLLESGGGLVQPGGSLRLSCAFSGFSLSTFGMGVGWVRQAPGKGLEWVSHIWWDDDKYYHPALKGRFTISKDNSKNTVYLQMNSLRAEDTAVYYCGRNHFPHYYGSSHWYFNVWGQGTTVTVSS
VL: EIVMTQSPATLSLSPGERATLSCKASQDINSYLSWYQQKPGQAPRLLIYRANRLVDGIPARFSGSGSGTDYTLTISSLEPEDFAVYYCLQYDEFPYTFGGGTKVEIK
B6: SRP2060-B01 (antibody, V domains shown)
VH: B5 VH with F24L, P43T, Y81H
VL: DIQMTQSPSTLSASVGDRVTITCKASQDINSYLSWYQQKPGKAPKLLIYRANRLVDGVPSRFSGSGSGTEFTLTISSLQPDDFATYYCLQYDEFPYTFGGGTKVEIK
B7: SRP2060-E05 (antibody, V domains shown)
VH: B5 VH with I71V
VL: B5 VL
B8: SRP1848-G04 (antibody, V domains shown)
VH: EVQLVESGGGLVQPGGSLRLSCAASGFNIHSTDIHWVRQAPGKGLEWVAYITPAGGATFYADSVKGRFTISADTSKNTAYLQMNSLRAEDTAVYYCARYPYWFAGYMDYWGQGTLVTVSS
VL: not shown
B9: SRP1848-G09 (antibody, V domains shown)
VH: B8 VH with H30R, S31G, Y99H, P100E, A104S
VL: not shown
B10: SRP1848-G06 (antibody, V domains shown)
VH: B8 VH with H30R, F59Y, S63N, Y99Q
VL: not shown
B11: SRP1848-G11 (antibody, V domains shown)
VH: B8 VH with H30S, F59W, A104S
VL: not shown
B12: SRP1848-G07 (antibody, V domains shown)
VH: B8 VH with F59W, Y101F
VL: not shown
B13: SRP1848-G10 (antibody, V domains shown)
VH: B8 VH with G16S, H30R, F59Y, M107I
VL: not shown
B14: SRP1848-E03 (antibody, V domains shown)
VH: EVQLVESGGGLAQPGGSLRLSCAASGFNIGNYYIHWVRQAPGKGLEWVGGITPRDGFTDYADSVKGRFTISADTSKNTAYLQVNSLRAEDTAVYYCARGSWSWPAGHSYYLDYWGQGTLVTVSS
VL: not shown

Legend:
[1] = biological target: human folate receptor alpha (hFOLR1) (human, UniProt P15328 25-234); assay: cell-based or functional assay
[2] = biological target: human folate receptor alpha (hFOLR1) on cells (human, UniProt P15328 25-234); assay: cell-based or functional assay
Chain of human folate receptor alpha (hFOLR1) on cells (P15328 25-234 limits assumed): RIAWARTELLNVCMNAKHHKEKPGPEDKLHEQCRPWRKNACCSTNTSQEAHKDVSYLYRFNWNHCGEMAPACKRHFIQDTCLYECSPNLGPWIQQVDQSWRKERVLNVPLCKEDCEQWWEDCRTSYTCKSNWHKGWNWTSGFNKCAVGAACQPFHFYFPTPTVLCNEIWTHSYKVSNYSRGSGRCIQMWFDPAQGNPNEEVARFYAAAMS

Chain of human folate receptor alpha (hFOLR1) (P15328 25-234 limits assumed): as above

Binder	Igrov 2° antibody cell killing EC50 [1]	Igrov 2° antibody cell killing Span [1]	KB 2° antibody cell killing EC50 [1]	KB 2° antibody cell killing Span [1]	Igrov 2° Antibody Cell Killing, Nb-SC239, EC50 [2]	Igrov 2° Antibody Cell Killing, Nb-SC239, span [2]
B1	24 pM	77%	61 pM	94%		
B2	39 pM	71%	28 pM	94%		
B3	38 pM	76%		98%		
B4	25 pM	74%		93%		
B5					61 pM	68%
B6					45 pM	76%
B7					220 pM	71%
B8	16 pM	75%	51 pM	92%		
B9	36 pM	83%	73 pM	97%		
B10	26 pM	81%	57 pM	96%		
B11	23 pM	84%	40 pM	97%		
B12	38 pM	78%	58 pM	94%		
B13	19 pM	79%	46 pM	97%		
B14	27 pM	73%	57 pM	94%		
